We go through 31 sequences from the supplement of paper PMC9170038.

In the data set the test system is MS2 coat protein. Kind of data set: apparent KD of MS2 coat protein; designed switch direction (-1 OFF switch, 1 ON switch): -1; higher = weaker reporter binding. The essentials:
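Designed RNA switches were transcribed on Illumina chips by stalled E. coli RNA polymerase and titrated with SNAP-549-labelled MS2 coat protein from 0.7 or 1.5 nM, doubling to 3 µM. Step length ran from 0.8–1.5 h at the lowest concentration to 10–20 min at the highest. The apparent KD is the median over clusters for each design, from curve-fitted normalised cluster fluorescence.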

[1] abbreviates: Eterna round: R95, input ligand: FMN 200 uM.
Setting [2] is: Eterna round: R95, input ligand: microRNA oligo, concentration not stated.
[3] abbreviates: Eterna round: R95, input ligand: none.
Setting [4] is: input ligand: microRNA oligo, concentration not stated.

Regarding “GAGAGACGAGGAUAUGCAGGAGUGCAGUCAGGUUCCAAAAUACAUGAGGAUCACCCAUGUAGAAGGUGUCAUCU [Eternabot (L2) Solution 26] (Eterna round: R97, puzzle: Exclusion 2)”, the “apparent KD of MS2 coat protein” value runs as follows: (input ligand: FMN 200 uM) 16.6 nM; (input ligand: none) 15.6 nM.

Consider “GUUUAGUGAGGAUAUAAGGCUUCGAUCGAGCGCGGUCUGCUACAGAAGGCACAUGAGGAUCACCCAUGUUUCUC [salish99_ex4_r4_311] (Eterna round: R97, puzzle: Exclusion 4)”, for which the “apparent KD of MS2 coat protein” value runs as follows: (input ligand: FMN 200 uM) 29.2 nM; (input ligand: none) 34.4 nM.

As to “CGGUACUGAGGAUAUACAUGAGGAUCACCCAUGUGUUCAAGCUAGCGUACUGGCAUUAGUAGAAGGCGGUGCUG [JL-ex3-3.21 Brourd mod] (puzzle: Exclusion 3)”, the “apparent KD of MS2 coat protein” value is 26.7 nM under setting [1], 14.6 nM under setting [2] and 16.9 nM under setting [3].

In the case of “CCGAAGGCAGGAUAUACAGGACAGACCCAUCAGAGCAGACUACAUGAGGAUCACCCAUGUAGAAGGGCCUUCAA [Eternabot (Original) Solution 26] (Eterna round: R97, puzzle: Exclusion 2)”, the “apparent KD of MS2 coat protein” value was determined as 154 nM (input ligand: FMN 200 uM) and 18.7 nM (input ligand: none).

For the sequence “GGAUCGAGUGUGAGGAUAUGCUGGUCCUUGGAUCAGCAGAAGGCACAUGAGGAUCACCCAUGUGAAAACGGUCC [Mat - Exclusion 4 - JL Mod - D70] (puzzle: Brourd's mod of Exclusion 4)”, the “apparent KD of MS2 coat protein” value under setting [2] was 22.7 nM.

In the case of “UUUUAACAUGAGGAUCACCCAUGUGAGGAUAUCGAAAUUUAUAUUUAUAUUAAUAAAUCGAGAAGGCACAUUUU [JMF 76] (puzzle: Exclusion 1)”, the “apparent KD of MS2 coat protein” value under setting [2] was 119 nM.

Consider “CAAUAGUGAGGAUAUCUGAUCACACCAUGAAGAAGGAGUGUAGAGAAGGCACAUGAGGAUCACCCAUGUCCCGU [Eternabot (L2) Solution 43] (Eterna round: R97, puzzle: Exclusion 4)”, for which the “apparent KD of MS2 coat protein” value (input ligand: FMN 200 uM) came to 37 nM and the “apparent KD of MS2 coat protein” value (input ligand: none) stood at 23.9 nM.

On to “UGGAUAAUUGGAGGAUAUGCGACAUAAACCAUUGUAGAAGGCCAACAUGAGGAUCACCCAUGUGUCCCAGAGACCACAGAUCCA [Eternabot solution 9] (Eterna round: R96, puzzle: Exclusion NG 1)”, for which the “apparent KD of MS2 coat protein” value reads like this: (input ligand: FMN 200 uM) 36.9 nM; under setting [4], 22.2 nM; (input ligand: none) 28.2 nM.

Consider “GUUGUUCGAGGAUAUACAUGAGGAUCACCCAUGUGUGUUGUGGGCGACGUUCGUUUAUGUAGAAGGCGGGCGGC [-27.2, -23.9 kcal, 19% A] (Eterna round: R97, puzzle: Exclusion 3)”, for which the “apparent KD of MS2 coat protein” value (input ligand: FMN 200 uM) was determined as 78.2 nM and the “apparent KD of MS2 coat protein” value (input ligand: none) was determined as 50.1 nM.

In the case of “GAUUAACAUGAGGAUCACCCAUGUGAGGAUAUGGACUGGCUCACUUUUCGAUUCCCGUCUAGAAGGCACAUCUU [1986#10] (Eterna round: R97, puzzle: Exclusion 1)”, the “apparent KD of MS2 coat protein” value is 85.9 nM (input ligand: FMN 200 uM) and 41.1 nM (input ligand: none).

For the sequence “AUGAGACAUGAGGAUCACCCAUGUGAGGAUAUGUAUGGAUGUUGGAAAGAAUGAGAGAACAGAAGGCACGUAGA [JR_Exclu1_Sub063] (puzzle: Exclusion 1)”, the “apparent KD of MS2 coat protein” value was found to be 93.1 nM under setting [1], 104 nM under setting [2] and 149 nM under setting [3].

With “AUGCUCCGUGUAGGAUAUCGCCGUACUACUCGGCGAGAAGGACAUGAGGAUCACCCAUGUAUGUUAUUAUCACGUGUGGCGCGC [Design 49] (Eterna round: R96, puzzle: Exclusion NG 1)”, the “apparent KD of MS2 coat protein” value reads like this: (input ligand: FMN 200 uM) 45.7 nM; under setting [4], 14 nM; (input ligand: none) 19.7 nM.

On to “AAAGAACAUGAGGAUCACCCAUGUAAGGAUAUCCAAAAGAAGGAAAGAAAGAAAAGAAGGAGAAGGUACAAGAA [JR_Exclu1_Sub041] (puzzle: Exclusion 1)”, for which the “apparent KD of MS2 coat protein” value runs as follows: under setting [1], 33.5 nM; under setting [2], 60.7 nM; under setting [3], 84.5 nM.

For the sequence “CUCGGACAUGAGGAUCACCCAUGUGAGGAUAUGGCGCGAUCGUCGAAAGACGAUAGCGCCAGAAGGCACAAAUG [LRO-Excl1-26] (puzzle: Exclusion 1)”, the “apparent KD of MS2 coat protein” value under setting [2] was found to be 52 nM.

Take “AACAGUCUGGAGGAUAUGCUGGAUUAAAAUCUGGCAGAAGGCUGGACAUGAGGAUCACCCAUGUAAAUACUACC [Omei Ex6 A2a] (Eterna round: R97, puzzle: Exclusion 6)”: the “apparent KD of MS2 coat protein” value runs as follows: (input ligand: FMN 200 uM) 73.1 nM; (input ligand: none) 24.8 nM.

With “AUAAAGCAGUCAGGAUAUAUGAGAGGUCGUUUCAUAGAAGGGACAGCUCGUGCGUGGCUGACAUGAGGAUCACCCAUGUACGUU [Enrizala] (Eterna round: R96, puzzle: Exclusion NG 1)”, the “apparent KD of MS2 coat protein” value by setting is: (input ligand: FMN 200 uM) 229 nM; under setting [4], 39.1 nM; (input ligand: none) 37.6 nM.

“GACCUAUAGGUAGGAUAUCAUUGCGAUUAGCUAUGAGAAGGACCACAUGAGGAUCACCCAUGUCCUCUAAUUAGCCAUUUGGUC [Fiskers ExNg1 - 8] (Eterna round: R96, puzzle: Exclusion NG 1)”: under setting [4], the “apparent KD of MS2 coat protein” value was found to be 338 nM.

Regarding “GGACCGCGGCAAGGAUAUCUUUGUCAACAUAAAACAUGAGGAUCACCCAUGUGCAUCUUCGUGUGAGAGAAGGUGCGGCAGUCC [Isisgeri] (Eterna round: R96, puzzle: Exclusion NG 2)”, the “apparent KD of MS2 coat protein” value came to 222 nM (input ligand: FMN 200 uM), 113 nM under setting [4] and 127 nM (input ligand: none).

In the case of “GCACGGUUGGUAGGAUAUCCUUGCGAUUAGCAAGGAGAAGGACCACAUGAGGAUCACCCAUGUACCUCAAUUGUCCUUCCGUGC [Eli exng1 - 026] (Eterna round: R96, puzzle: Exclusion NG 1)”, the “apparent KD of MS2 coat protein” value reads like this: (input ligand: FMN 200 uM) 18.5 nM; under setting [4], 13.9 nM; (input ligand: none) 19.3 nM.

“UAAAGUGAGUCCUCGCAGCAGCGUAGGGCGGUGCUAGCUACAUGAGGAUCACCCAUGUUUUCGCUCGUCCAGCACCU [Ceaorreti] (Eterna round: R96, puzzle: Sensor v2, turn-off variant 2)”: the “apparent KD of MS2 coat protein” value (input ligand: FMN 200 uM) came out at 89.2 nM, the “apparent KD of MS2 coat protein” value under setting [4] amounted to 59.2 nM and the “apparent KD of MS2 coat protein” value (input ligand: none) is 101 nM.

Turning to “GCAGCAUAGUUUACUAACUGUUACAUGAGGAUCACCCAUGUCUAGGAUAUGGUCUGGAUUACAGGCCAGAAGGAGACAAGCUGC [Eli exng3 - 034] (Eterna round: R96, puzzle: Exclusion NG 3)”, the “apparent KD of MS2 coat protein” value is 14.1 nM (input ligand: FMN 200 uM), 12.1 nM under setting [4] and 16.6 nM (input ligand: none).

Regarding “ACAAAGGGAGUCAGGAUAUCGGACGUAAGUCAAGACGAGAAGGGACAUGAGGAUCACCCAUGUCAGCGGUGAAA [Exclusion 4 S1] (puzzle: Brourd's mod of Exclusion 4)”, the “apparent KD of MS2 coat protein” value is 42.5 nM under setting [1], 18.7 nM under setting [2] and 17 nM under setting [3].

In the case of “UUAUAUAGUGUGAGGAUAUGCUGGUCCUUGGAUCAGCAGAAGGCACAUGAGGAUCACCCAUGUAGUUAAUUAUA [Mat - Exclusion 4 - JL Mod - D15] (puzzle: Brourd's mod of Exclusion 4)”, under setting [2], the “apparent KD of MS2 coat protein” value is 30.1 nM.

Regarding “AAAGCGUGAGGAUAUGAGGCGCCGGGCCGGUUGGUGCGGAUUCAGAAGGCACAUGAGGAUCACCCAUGUAGGAA [Excls4-III] (puzzle: Exclusion 4)”, the “apparent KD of MS2 coat protein” value under setting [2] amounted to 22.9 nM.

On to “GCGGAGUAUGUAGGAUAUCGGUCAGUUUCUGAUCGAGAAGGACAUGAGGAUCACCCAUGUAAAUUGCCCGCUUUGUGGGUCCGC [JL ENG1 3.61] (Eterna round: R96, puzzle: Exclusion NG 1)”, for which the “apparent KD of MS2 coat protein” value came out at 36.5 nM (input ligand: FMN 200 uM), 13.2 nM under setting [4] and 17.8 nM (input ligand: none).

As to “UAAGCUCUGUCAGGAUAUCCCUGUAAACGCAACGGAGAAGGGACAUGAGGAUCACCCAUGUGCGGGCCCAACGCGCUCGGGUCC [Dilacesole] (Eterna round: R96, puzzle: Exclusion NG 1)”, the “apparent KD of MS2 coat protein” value came to 63.6 nM (input ligand: FMN 200 uM), 23.6 nM under setting [4] and 35.1 nM (input ligand: none).

In the case of “UAUUGCAAGUGAGGAUAUGACAUGAGGAUCACCCAUGUAAAGGGAGUUGGCUAUAUAGCAAGAUAUCAGAAGGCACAACUGUAU [JR_ExcNG2_Sub005] (Eterna round: R96, puzzle: Exclusion NG 2)”, the “apparent KD of MS2 coat protein” value is, setting by setting: (input ligand: FMN 200 uM) 76.7 nM; under setting [4], 25.9 nM; (input ligand: none) 64.3 nM.

For the sequence “GGUGCGUAUGUGAGGAUAUGCUGGUCCUUGGAUCGGCAGAAGGCACAUGAGGAUCACCCAUGUGGUGUCGUACC [salish99_Bmod_Ex4_023] (puzzle: Brourd's mod of Exclusion 4)”, the “apparent KD of MS2 coat protein” value under setting [2] amounted to 165 nM.

Regarding “UACAUGAGGAUCACCCAUGUUUUGUCGUGUAUGGUAUUUAUCUAGGAUAUCAAUUUGUUUAUUUAUGAGAAGGAGAAUAUUAAU [JMF's solution 16] (Eterna round: R96, puzzle: Exclusion NG 3)”, the “apparent KD of MS2 coat protein” value runs as follows: (input ligand: FMN 200 uM) 39.2 nM; under setting [4], 29.8 nM; (input ligand: none) 41 nM.

Take “GACCCGUCAGGAUAUACAUGAGGAUCACCCAUGUAAUCAGCGAUAGGACAAGGCUCACGUAGAAGGGACAGGGU [Eternabot (L1) Solution 33] (Eterna round: R97, puzzle: Exclusion 3)”: the “apparent KD of MS2 coat protein” value was found to be 44.6 nM (input ligand: FMN 200 uM) and 22.8 nM (input ligand: none).

On to “UAUUAGCAAGUGAGAUCCCACAUGAGGAUCACCCAUGUGCUCGUCUUUUAACGUACUGUGAGGAAACUCACGGUACG [Sensor-V1 #82] (Eterna round: R97, puzzle: Sensor, turn-off variant 1)”, for which the “apparent KD of MS2 coat protein” value runs as follows: (input ligand: FMN 200 uM) 62.1 nM; (input ligand: none) 67.1 nM.
